The text below walks through data of PMC6238587, “Molecular analysis of human Ero1 reveals novel regulatory mechanisms for oxidative protein folding” (Life Science Alliance, 2018).

To fix the notation:
T1: human Ero1β C100/130A, N-terminal His tag (human, UniProt Q86YB8 34-467, D129V | H465Q | C100/130A | C100/130A)
T1 construct: human Ero1β, mature, residues Q34-R467, natural D129V and H465Q variant; also called CCAA (h.a.); source: E. coli BL21(DE3)ΔtrxAΔtrxC with CyDisCo (Erv1p, PDI) co-expressed; in lysate, and purified
T1 sequence (looked up): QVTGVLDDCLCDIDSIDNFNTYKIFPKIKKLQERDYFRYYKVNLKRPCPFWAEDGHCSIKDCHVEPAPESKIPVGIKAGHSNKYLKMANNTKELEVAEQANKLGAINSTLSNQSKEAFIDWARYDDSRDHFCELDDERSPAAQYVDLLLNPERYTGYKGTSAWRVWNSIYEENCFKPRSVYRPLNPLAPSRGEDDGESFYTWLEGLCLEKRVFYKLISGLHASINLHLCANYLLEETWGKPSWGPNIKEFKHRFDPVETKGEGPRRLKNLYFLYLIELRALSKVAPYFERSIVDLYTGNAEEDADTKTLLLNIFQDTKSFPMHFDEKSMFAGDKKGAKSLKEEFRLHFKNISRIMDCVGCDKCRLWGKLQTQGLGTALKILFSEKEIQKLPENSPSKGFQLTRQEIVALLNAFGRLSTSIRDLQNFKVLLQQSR

T2: human Ero1α C104A/C131A, N-terminal His tag (human, UniProt Q96HE7 24-468, C104A | C131A)
T2 construct: human Ero1α, mature, residues E24-H468; also called CCAA (h.a.); source: E. coli BL21(DE3)ΔtrxAΔtrxC with CyDisCo (Erv1p, PDI) co-expressed; in lysate, and purified
T2 sequence (looked up): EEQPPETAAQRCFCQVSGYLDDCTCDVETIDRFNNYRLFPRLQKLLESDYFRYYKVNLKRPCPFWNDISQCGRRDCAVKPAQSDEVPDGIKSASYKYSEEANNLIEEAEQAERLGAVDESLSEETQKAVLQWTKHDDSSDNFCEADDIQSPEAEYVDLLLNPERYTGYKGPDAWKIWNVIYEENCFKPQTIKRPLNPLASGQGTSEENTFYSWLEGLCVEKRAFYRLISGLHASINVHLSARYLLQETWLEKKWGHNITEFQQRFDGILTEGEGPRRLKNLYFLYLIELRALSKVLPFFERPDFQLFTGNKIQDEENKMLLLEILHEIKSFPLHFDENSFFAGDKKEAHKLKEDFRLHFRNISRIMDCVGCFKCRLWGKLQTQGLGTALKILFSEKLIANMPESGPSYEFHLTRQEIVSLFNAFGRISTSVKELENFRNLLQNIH

B1: human PDI with three consecutive FLAG tag sequences inserted before the ER retention signal, non-His-tagged (enzyme)
chain: not shown
notes: human PDI, mature, codon-optimized; residues after the TEV site probably stay on the protein; also called PDI3FLAG; source: E. coli, purified (cobalt IMAC, TEV protease cleavage, anion exchange); not shown: 3xFLAG, internal (after residue 503), kept; His6, N-terminal, cleaved
B2: human PDIp, non-tagged (enzyme, UniProt Q13087 22-525, looked up)
chain: QEQGARSPSEEPPEEEIPKEDGILVLSRHTLGLALREHPALLVEFYAPWCGHCQALAPEYSKAAAVLAAESMVVTLAKVDGPAQRELAEEFGVTEYPTLKFFRNGNRTHPEEYTGPRDAEGIAEWLRRRVGPSAMRLEDEAAAQALIGGRDLVVIGFFQDLQDEDVATFLALAQDALDMTFGLTDRPRLFQQFGLTKDTVVLFKKFDEGRADFPVDEELGLDLGDLSRFLVTHSMRLVTEFNSQTSAKIFAARILNHLLLFVNQTLAAHRELLAGFGEAAPRFRGQVLFVVVDVAADNEHVLQYFGLKAEAAPTLRLVNLETTKKYAPVDGGPVTAASITAFCHAVLNGQVKPYLLSQEIPPDWDQRPVKTLVGKNFEQVAFDETKNVFVKFYAPWCTHCKEMAPAWEALAEKYQDHEDIIIAELDATANELDAFAVHGFPTLKYFPAGPGRKVIEYKSTRDLETFSKFLDNGGVLPTEEPPEEPAAPFPEPPANSTMGSKEEL
B3: human Ero1α, wild type, N-terminal His tag (E24-H468) (enzyme, UniProt Q96HE7 24-468, looked up)
chain: T2 sequence (looked up) with A81C, A108C
modifications: (phospho)gluconoylation of the N-terminal His tag, gluconoylated species the major state
notes: human Ero1α, mature, residues E24-H468; With co-expressed PDI it purifies as a heterodimer; also called endoplasmic reticulum oxidoreductin 1 alpha; CCCC; source: E. coli BL21(DE3)ΔtrxAΔtrxC with CyDisCo components co-expressed; in lysate, and purified (cobalt IMAC, anion exchange, size exclusion)
B4: human Ero1β, wild type, N-terminal His tag (Q34-R467, natural D129V and H465Q variant) (enzyme, UniProt Q86YB8 34-467, looked up)
chain: T1 sequence (looked up) with A67C, A97C
modifications: (phospho)gluconoylation of the N-terminal His tag, gluconoylated species the major state
notes: human Ero1β, mature, residues Q34-R467, natural D129V and H465Q variant; With co-expressed PDI it purifies as a heterodimer; also called CCCC; source: E. coli BL21(DE3)ΔtrxAΔtrxC with CyDisCo components co-expressed; in lysate, and purified (cobalt IMAC, anion exchange, size exclusion)
B5: human PDI, wild type, non-tagged, purified (enzyme)
chain: not shown
B6: human protein disulfide isomerase (PDI), wild type, co-expressed CyDisCo component (enzyme)
chain: not shown
notes: human PDI, wild-type codon-optimized gene of the CyDisCo plasmid pMJS205; also called wild-type PDI; source: E. coli BL21(DE3)ΔtrxAΔtrxC, co-expressed with Ero1 from pMJS205; in lysate, and co-purified with His-tagged Ero1

Residue numbers refer to the chain shown, from its start. In names and notes the source's numbering stands.

The target in assay [1] is B3. Nature of the assay: pull-down; PDI exchange assay: 1 μM His-tagged Ero1–PDI heterodimer with non-His-tagged PDI, PDI3FLAG or other PDI family member (1:1 or 10:1), 1 h at RT, 20 mM sodium phosphate pH 7.3, 150 mM NaCl; Ni-NTA spin columns with 10 mM imidazole; reducing SDS–PAGE. The following applies: both partners purified.
Assay [2] has as its target B4. The assay is described as above. The following applies: both partners purified.
Assay [3] concerns the target His-tagged Ero1β–PDI heterodimer (human, UniProt Q86YB8 34-467; P07237 18-508, D129V | H465Q, (phospho)gluconoylation of the N-terminal His tag, gluconoylated species the major state). Nature of the assay: cell-based or functional assay.
Assay [4] addresses B5. Briefly: pull-down; PDI exchange assay: 1 μM His-tagged Ero1–PDI heterodimer with non-His-tagged PDI, PDI3FLAG or other PDI family member (1:1 or 10:1), 1 h at RT, 20 mM sodium phosphate pH 7.3, 150 mM NaCl; Ni-NTA spin columns with 10 mM imidazole; reducing SDS–PAGE. The following applies: both partners purified.
In assay [5] the target is B1. Briefly: pull-down; PDI exchange assay with the redox state of both components fixed by GSSG before mixing. The following applies: both partners purified.
Assay [6] has as its target His-tagged Ero1α–PDI heterodimer (human, UniProt Q96HE7 24-468; P07237 18-508, (phospho)gluconoylation of the N-terminal His tag, gluconoylated species the major state). Briefly: cell-based or functional assay.
The target in assay [7] is B3. Briefly: pull-down; His-tagged Ero1 co-expressed with untagged PDI (CyDisCo) in E. coli; large-scale purification by cobalt IMAC, anion exchange and size-exclusion chromatography; SDS–PAGE. The following applies: partners not purified. A general note: In gel filtration, larger molecules generally elute earlier.
In assay [8] the target is T1, human Ero1β C100/130A, N-terminal His …. The assay is described as above. The following applies: partners not purified.
The target of assay [9] is T2, human Ero1α C104A/C131A, N-terminal His …. Described as above. The following applies: partners not purified.
The target in assay [10] is B4. The assay is described as above. The following applies: partners not purified.

Sequence of His-tagged Ero1β–PDI heterodimer (P07237 18-508, stated change not applied, one chain of several): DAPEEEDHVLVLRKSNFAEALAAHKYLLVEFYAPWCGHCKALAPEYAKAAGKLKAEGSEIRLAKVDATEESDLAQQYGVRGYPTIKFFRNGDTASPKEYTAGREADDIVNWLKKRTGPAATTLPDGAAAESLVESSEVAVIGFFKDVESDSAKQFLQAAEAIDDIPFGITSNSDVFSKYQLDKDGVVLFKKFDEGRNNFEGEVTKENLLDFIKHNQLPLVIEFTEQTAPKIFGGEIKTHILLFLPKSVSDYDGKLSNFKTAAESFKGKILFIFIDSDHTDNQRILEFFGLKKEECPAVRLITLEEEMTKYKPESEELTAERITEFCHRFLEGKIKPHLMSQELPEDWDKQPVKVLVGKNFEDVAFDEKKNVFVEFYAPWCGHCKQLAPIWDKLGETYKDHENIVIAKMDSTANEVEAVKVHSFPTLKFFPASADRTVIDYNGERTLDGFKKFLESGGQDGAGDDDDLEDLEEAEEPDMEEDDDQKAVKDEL
Sequence of His-tagged Ero1α–PDI heterodimer (P07237 18-508, one chain of several): as the sequence (P07237 18-508, stated change not applied, one chain of several) above

With B1, in assay [1], the “ratio of co-purified PDI3FLAG to wild-type PDI (PDI3FLAG added 1:1)” value is ~1 PDI3FLAG per wild-type PDI and the “wild-type PDI left in the complex with 10-fold PDI3FLAG, percent of the original” value is about 10%. Further, in assay [2], the “ratio of co-purified PDI3FLAG to wild-type PDI (PDI3FLAG added 1:1)” value was ~1 PDI3FLAG per wild-type PDI and the “wild-type PDI left in the complex with 10-fold PDI3FLAG, percent of the original” value was about 10%.
As to B2, the “acceleration of kcat of oxygen consumption by 10 μM external PDIp” value in assay [3] is 3.7 fold.
As for B3, the binding result in assay [4] and in assay [5] was “binds” in each case.
In the case of B4, the binding result in assay [4] and in assay [5] was “binds” each time.
With B5, the “acceleration of kcat of oxygen consumption by 10 μM external PDI” value amounted to 4.8 fold in [3] and 7.1 fold in [6].
Regarding B6, the stoichiometry N (commonly the number of molecules, sites or subunits per partner or assembly) in assay [7] is about 1 PDI per Ero1; in assay [8], 1 PDI per Ero1; in [9] it was 1 PDI per Ero1; in assay [10], about 1 PDI per Ero1.
